Target: Globin E1 of the South American lungfish Lepidosiren paradoxa, recombinant (Lepidosiren paradoxa)

- cooperativity (n) of the O2 equilibrium curve, pH 7.2, 20 °C: 1.19
Substance: Globin E1 of the South American lungfish Lepidosiren paradoxa, recombinant (natural protein)

Reference: publication PMC6343008
